Test: soluble on expression in E. coli; label from the status in PepcDB or PDB records

Sequence	soluble on expression in E. coli
MAHHHHHHMKQLLSPKTARHSRLFRLANRLAGQKGAPESDGERLSWVNSHVKRTQDMELSREEEALRERIMPLEVGDNAVVSNSQATHGNLFHFREYPMYPGEYVPAGHNTLSSLRDELRSDLTAQSLKEAWMRVSGGMYFKSIDDYYASVDGLDQEQLGEIVSALLPDLRKYEAQALVTKVLESLSKPADSPSRQLSRTITADAVGLDNAPGHYTNFLEWMGRMTETKAFKTEHALFEFSRRKFNREDVRVMFENYNLMSKATLEADSTDSYSHFYTVLHDFSRKVAGEDTRHQIGVRIDPAEVDPETGIAVGHGRADGQKYMFTALIRENRDHNGSVTLLGKPLSVAFDDKSWLMEMVLMPFDEAKLDFRDFDVNLISEGKAMPSFANEIAAFACRMAVANAITKLLPLARIPLKKAGLLSVDRRREPGQFPGFVDGKKNKRKFAKR	not soluble
MSLFPSSEVEAKRTTLNLELESNTDRLLQEKDDLLPQSVTNSSDEGTPFAQVEGASDDNTAEQDSDKPGASVADADTKPVDPEWKTITVASGDTLSTVFTKAGLSTSAMHDMLTSSKDAKRFTHLKVGQEVKLKLDPKGELQALRVKQSELETIGLDKTDKGYSFKREKAQIDLHTAYAHGRITSSLFVAGRNAGLPYNLVTSLSNIFGYDIDFALDLREGDEFDVIYEQHKVNGKQVATGNILAARFVNRGKTYTAVRYTNKQGNTSYYRADGSSMRKAFIRTPVDFARISSRFSLGRRHPILNKIRAHKGVDYAAPIGTPIKATGDGKILEAGRKGGYGNAVVIQHGQRYRTIYGHMSRFAKGIRAGTSVKQGQIIGYVGMTGLATGPHLHYEFQINGRHVDPLSAKLPMADPLGGADRKRFMAQTQPMIARMDQEKKTLLALNKQREGHHHHHH	soluble
MGSDKIHHHHHHADGRYIEVTGTSEIEIVPDRIHYIIEIREYFEEEFDGRSKPEEYRTKISLDRIEQGLREVLHDAGISPNAVRTQEIGDYWRKQGQDFLVAKTFDITLLDFKQIDEILKRMDTKGIHTMRIGELENKDMLSYHQKGKIAALKAAQRKASYLVEALGKKLGPVIRIVEDEAGSSLPFSQSNVLSSSVVSFDSFRTIKKKYSMLVRFEIAD	not soluble
GPGSMQFTVEQIRSVRNNYLEPPYPGFSLDEVVRRRRLTQTKLVRGENAWVAKGTAQTTEEWVQRLLHGTLNKLTEENKDIMIDKLLTKELFATEDIMNMVVNIIFKKALDEPENSKLYAGVCHSLALYEAKVLRDGHKGERPQSQLRDAIISTAQHEFRTLSKELSKMEDKSEEELEYERSNVMRRKRSNMRFIGELYLCTALTHSTMFTVMDLTMRCSDKTGFPSSENIELLAALLNTIGDRLDKNHKKTLDPYFTSLENFNKKSDCPYPPRIRFKIMDLLDLRKRGWGLKPKPVKAALPPSHGKDKKYATAPPPKKGGRDQGSAAAASKSWRDAATTKTGTAAAPAPSADKGLNGRGTSSAAPAANTAALSSSSASTAAATAPAGASFRDEASPQVPLVKFELRVASMFQEWVADRTNDVILHWVDQFNTCDRFFESESELCVAVAQEVIHSACTTTRKDAQREAFSFLVVGLYMIDTEVFDGFASALASAIEDGLLEDVPKFGERFMSMLRLTSTEQETRADVYFDAANVLRLTYNRLESPDDSAVDTLMSFWDRVPLPSTDEENMIRMDLDVVYSLCNPEGVQDGLEKLLSRIIHSMLQMQLMDAEVLDEFLCLDVEDGLCAKVIADYKERFPK	soluble
GSHMSRILAVHASPRGERSQSRRLAEVFLAAYREAHPQARVARREVGRVPLPAVTEAFVAAAFHPQPEQRSLAMQADLALSDQLVGELFDSDLLVISTPMYNFSVPSGLKAWIDQIVRLGVTFDFVLDNGVAQYRPLLRGKRALIVTSRGGHGFGPGGENQAMNHADPWLRTALGFIGIDEVTVVAAEGEESGGRSFEDSCDEAEQRLLALARSA	soluble
MSSPYILVLYYSRHGATAEMARQIARGVEQGGFEARVRTVPAVSTECEAVAPDIPAEGALYATLEDLKNCAGLALGSPTRFGNMASPLKYFLDGTSSLWLTGSLVGKPAAVFTSTASLHGGQETTQLSMLLPLLHHGMLVLGIPYSEPALLETRGGGTPYGASHFAGADGKRSLDEHELTLCRALGKRLAETAGKLGS	soluble
MGSDKIHHHHHHMSARIPTLDITRFDSDREAFVAELGAAYRQWGFAGIRNHGIAQSDIDAAYEVFKAFFALPDEVKRSYHVPGSGGARGYTAFGVETAKDSKHFDLKEFWHIGREIPDDSPYRAVMAPNLWPTEVPGFRERGYHLYQQLDQLGSRVLSALALHIGLPQDYFADKTDHGNSILRPIHYPPITSDDIPNVRAGAHGDINFITLLVGASAAGLEVRSNEGEWVPFTADADTIVVNIGDMLQRLTNHVYPSTIHRVVNPPGEEARKPRYSVPFFLHPNPDFLIDVLPSCISADNPSRYPEPITAHGFLEERLREIKLK	not soluble
MAHHHHHHMTSVYNFKTITVVPTYKDFMDIVLSKTQRKTPTVVHKGYHISRIRQFYMRKVKFTQKTINEKLTYILQEFPRMDDIHPFYGDLMHVLYDRDHYKVALGQVGAVRHMVDNIGRDYVRLLKYGDSLYRCKQLKRAALGRMATACKKLNSALAYLEKVRQHMSRLPSIDPNARTLLVTGFPNVGKSSFMNKVTRADVEVQPYAFTTKSLFVGHTDYKYTTWQVIDTPGILDHSLEERNVIEMQAITALAHLRACILFFMDLSGQCGYSIEQQVSLFKSVGPLFTGKPVVVVFNKCDVCTIDDVSSAEQELIMDAIQEADAKWITTSTLTDVGVGDLKTVACDMLLAHRSEQKEGSGRYQAIQNRLYCATPQQRDELERPAFVPASVLQARATGEPPRQRRKTERDYEWENGGPGQYQKNERKTWDLENPEWVDDIIPDIMDGHNIYDNIDPDIHQRLLELEAEEEARLEDLELEASRKHEQYTLDNDTIEAVKFIKDKIKVLKMERAMKNPAIRRTHSQAMAIDKFNKRTGSQDARAKSIADGSGEVPTRKRGRSMSVAQEALIRDRSGSAHVSTKTTRSISGASASRERSMSVNRGDGYRDVNEKLRAVKLSKVKARPLARQARKGEGDHHIPNLRPMHLFTGKVKSNGARDRR	not soluble
MAHHHHHHSLRLTPLPQPKRIHYMVKVGDTLSGIFAQLGVPYSILQKILSVDLDHLQLDMIQPGEELELMMDDMGQLSRLIYHMSIVEKAIYTRENDGSFSYDFQEISGEWREILFSGEINGSFSVSARRVGLTSSQVANITQVMKDKIDFSRSLRAGDRFDILVKQQYLGEHNTGNSEIKAISFKLAKGDVSAFLAEDGRFYDRAGNSLERAFNRYPVDKAYRQITSGFNPKRKHPVTGRVVPHNGTDFATPIGAPVYSTGDGKVIVVRKHPYAGNYLVIEHNSVYKTRYLHLDKILVKKGQLVKRGQKIALAGATGRLTGPHLHFEVLVRNRPVDAMKADLPIAKSLSSNQKTSFLARVSEFDHLVQANQQEVALDEG	soluble
MKTGKELKPGTVIRLENDPWLVQKAEFTKSGRNSAIMKTKLKNLLTGYKTEIVYSADDKLDDVILDRKEATLSFISGDTYTFMDTTDYTMYELNAEDIESVLPFVEEGMTDVCEAVFFDERLVSVELPTTIVRQVDYTEGSARGDTSGKVMKPAKLKNGTELSVADFIEIGDMIEIDTREGGSYKGRAKLEHHHHHH	not soluble
MQIDVDPQEDPQNAPDVNYVVENPTLDLEQYAASYSGLMRIERLQFIADRCPPLRVEALKMALSFVQRTFNVDMYEEIHRKLSEATRELQNAPDAIPESGVEPPPLDTAWVEATRKKALLKLEKLDTDLKNYKGNSIKESIRRGHDDLGDHYLDCGDLSNALKCYSRARDYCTSAKHVINMCLNVIKVSVYLQNWSHVLSYVSKAESTPEIAEQRGERDSQTQAILTKLKCAAGLAELAARKYKQAAKCFLLASFDHCDFPELLSPSNVAVYGGLCALATFDRQELQRNVISSSSFKLFLELEPQVRDIIFKFYESKYASCLKMLDEMKDNLLLDMYLAPHVRTLYTQIRNRALIQYFSPYVSADMHKMAAAFNTTVAALEDELTQLILEGLINARIDSHSKILYARDVDQRSTTFEKSLLMGKEFQRRAKAMILRAAVLRNQIHVKVKSLGCEGMGGTHTASTEPSLSTAVSS	not soluble
MSTPTVITLNDGREIQATDKPSYDEDSGFYEFEQLDGKRTRLNKDQIRTVKELLEHHHHHH	not soluble
MGSDKIHHHHHHMLDFNHQPSIAERINALIDSGLIADRDATPPRAYLGGSRLGHSCERALQFEFAGAPKDSGADFNGQTLRIFAIGHALEDVAIRWLRRAGFDIYTRKGNRPDGEQFGFSVAGGQVRGHVDGILADGPVIPGMGYPALWECKTMNAKNWRETVAKGVTVSKPVYAAQIALYQAYMEGTVPGISANPALFTAINKDTAELHHELVSFDGELAQRISDRAVRILQATDAGELLPRMSSDPDYFECRFCPWKTRCWA	not soluble

Source: the DeepSol protein solubility set
